Non-standard residues stand in square brackets, D forms with d. No end group written: not given here. *: point of attachment. Phe(4-I) = N[C@@H](Cc1ccc(I)cc1)C(=O)O; Fmoc = O=C(OCC1c2ccccc2-c2ccccc21)*
Substrate: FBS (fetal bovine serum) proteins
Test: FBS protein binding assay: 25 uM agent in 100% FBS, Amicon 10 K cutoff ultrafiltration, fluorescence of fractions

percent bound [%]	Binder
70	Fmoc-[Phe(4-I)]LPNSNHIK(IRDye800)QGL [4Iphf-HN18-IR800]
52	TSPLNIHNGQK(IRDye800)L [HN1-IR800]

Reference: patent US20200254116A1
